The test concerns the target T1, recombinant human CPP32 (Homo sapiens, UniProt P42574).
T1 construct: β-CHAIN; 29; 175; CPP32 P17 SUBUNIT; α-CHAIN; 176; 277; CPP32 P12 SUBUNIT; made in house; host or cells: E. coli BL21 (DE3), pET21b
T1 sequence (P42574 29-175): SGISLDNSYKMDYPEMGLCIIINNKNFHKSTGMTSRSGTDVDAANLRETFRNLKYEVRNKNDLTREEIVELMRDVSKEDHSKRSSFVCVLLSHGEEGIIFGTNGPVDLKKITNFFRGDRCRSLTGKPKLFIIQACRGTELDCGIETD
T1 sequence (P42574 176-277): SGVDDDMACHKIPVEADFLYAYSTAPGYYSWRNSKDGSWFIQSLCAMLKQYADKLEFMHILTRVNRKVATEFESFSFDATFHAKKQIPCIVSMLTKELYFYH
Kind of test: CPP32 protease activity inhibition (enzyme treated with irreversible inhibitor before crystallization). To be noted: slight excess (1.6×) of inhibitor added to purified recombinant human CPP32 (C-terminal 6His) in 50 mM DTT, 50 mM HEPES, pH 8.0, on ice. The format is biochemical. An excerpt:
As defined herein, purified CPP32 is more than 95% homogeneous. Protein homogeneity is determinable according to analytical methods well-known in the art, e.g. sequence analysis, electrophoresis, spectroscopic or chromatographic techniques. The purified protein is enzymatically active. Appropriate assays for determining CPP32 protease activity towards a suitable substrate, e.g. a natural substrate, such as PARP, or a synthetic substrate which is cleavable by CPP32, is known in the art. Advantagously, a peptide, such as aminomethylcoumarin, is used as synthetic substrate. […]
Recombinant human CPP32 expressed in a soluble form in E. coli (E. coli BL21) is purified to homogeneity by Ni^2+ chromatography using an imidazole gradient (60 mM-1 M). […] The purified CPP32 protein is more than 95% homogeneous, as determined by SDS-PAGE (10–20% gradient gel), reverse phase high performance liquid chromatography (RP-HPLC), MALDI-TOF mass spectrometry, N-terminal sequence and amino acid analysis. […] The purified CPP32 protein which is a (p17p12)2 tetramer in solution, as analyzed by dynamic light scattering, compares to the published CPP32 amino acid sequence (Fernandes-Alnemri, T., Litwack, G. & Alnemri, E. S. (1994). J. Biol. Chem. 269, 30761–30764, FIG. 1, p.30762) as follows: […]

The star is where a group is joined. CH2F = FC*

As for “Ac-Asp-Val-Ala-Asp-fluoromethylketone (Ac-DVAD-CH2F; SMILES CC(=O)N[C@@H](CC(=O)O)C(=O)N[C@H](C(=O)N[C@@H](C)C(=O)N[C@@H](CC(=O)O)C(=O)CF)C(C)C)”, the enzyme inhibited came out at 99.9%.
